Measured values as given in paper PMC314469, “Protein Interaction Networks by Proteome Peptide Scanning” (PLoS Biology, 2004).

Tests used:
[1] = molecular target: T1, amphyphisin SH3 (AMPH_HUMAN), P49418; assay: SPOT array
T1 chain: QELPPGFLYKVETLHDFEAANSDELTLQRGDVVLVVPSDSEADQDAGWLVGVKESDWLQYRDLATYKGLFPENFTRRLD

[2] = molecular target: endophilin SH3 (SH3G2_HUMAN), Q99962; assay: SPOT array

Binder	normalised SPOT signal, Boehringer light units (BLU); mean over the file's lines of this peptide [1]	normalised SPOT signal, Boehringer light units (BLU); mean over the file's lines of this peptide [2]
EDEEPKRPLPRKQS [Q9BZ71 330-343]	35.6	15.6
EEAALKRPEIISTV [Q9NU22 363-376]	18	15.2
EDPPPTRPSRPWRD [Q9UIG4 62-75]	6800	382
EDAKLRRPMVIEII [Q9NZ29 33-46]	34.7	74.7
EDVLLRRPKSTPDM [Q9NUD7 336-349]	38.7	16.2
AERPPSKPPPVELR [Q14203 913-927]	70.7	67.4
EDKALPRPIRPHRN [O75163 272-285]	483	22.8
EASSPARPSKHSVG [Q92932 121-134]	231	211
EARKPAKPPVSPKP [Q8WXD9 1216-1230]	53.6	1650
EDFVPFRPRRSPRM [Q14202 277-290]	20100	2630
AETRPHRPPGARDS [Q9H021 747-761]	218	1440
EDRLPRRPARSGGP [Q9UGK6 43-56]	9000	9090
EASGPERPPALLQE [Q03431 573-587]	52.1	62.6
EDVKPFKPPLSDAE [Q9UJV1 144-158]	41.5	58.1
EASIFRRPYYVSHF [O15360 570-583]	59	211
EDSIPKRPVSSIPL [Q8WTV4 223-236]	33.5	55.6
EDALPTRPKKRARS [Q9UPW0 160-173]	672	291
